Experiment: yeast display, Sf9 membrane polyspecificity reagent, FACS + sequencing; frameworks hold sequencing errors
Outline: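 Galactose induction of a Saccharomyces cerevisiae BJ5465 synthetic nanobody display library ran 36–48 hours. The cells were then stained for 1 hour at 4 °C with 10% biotinylated, detergent-solubilized Sf9 membrane reagent, pulled down on streptavidin microbeads and FACS-sorted into low and high (top ~1%) gates on expression and reagent-binding fluorescence. Labels for polyreactivity follow the gate of origin.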

Row | Sequence | polyreactivity (PSR sort gate)
1 | QVQLEESGGGLVQAGGSLRLSCAASGRIFYRYAMGWYRQAPGKERELVAAISSGGSTYYADSVKGRFTISRDNAKNTVYLQMNSLKPDDTAVYYCAATWGRGTYYLYYYWGQGTQVTVSS | high polyreactivity
2 | QVQLEESGGGLVQAGGSLRLSCAASGRLFGDNAMGWYSQAPGKERELVAAISDSGGSTYYADSVKGRFTISRDNAKNTVYLQMNSLKPEDTAVYYCAAEYIVRWYWYYYWGQGTQVTVSS | high polyreactivity
3 | QVQLEESGGGLVQAGGSLRLSCAASGRPCWLMLWDGIDRRLGKKGSWLPLTASTYYADSVKGRFTISRDNAKNTVYLQMNSLKPEDTAVYYCAADLYYGDYRTLPIADEYDYWGQGTQVTVSS | low polyreactivity
4 | QVQLEESGGGLVQAGGSLRLSCAASGRTFALYAMGWYRQAPGKERELVASISWRGGSTYYADSVKGRFTISRDNAKNTVYLQMNSLKPEDTAVYYCAADTWSYGPLNYRLEYWGQGTQVTVSS | low polyreactivity
5 | QVQLEESGGGLVQAGGSLRLSCAASGRTFAYYFMGWYRQAPGKERQLVAAISGSGGSTYYADSVKGRFTISRDNAKNTVYLQMNSLKPEDTAVYYCAAQYAYGGYDYWGQGTQVTVSS | high polyreactivity
6 | QVQLEESGGGLVQAGGSLRLSCAASGRTFDRNTMGWYRQAPGKERELVASITSSGASTYYADSVKGRFTISRDNAKNTVYLQINSLKPVDTSVYYCAARTYTGNYSNSKYYYWGQGTEVTVSS | high polyreactivity
7 | QVQLEESGGGLVQAGGSLRLSCAASGRTFGVYAMGWYRQAPGKERELVAGIRWRGGSTYYADSVKGRFTISRDNAKNTVYLQMNSLKPEDTAVYYCAADVYLVKYDYWGQGTQVTVSS | low polyreactivity
8 | QVQLEESGGGLVQAGGSLRLSCAASGRTFIKYAMGWYRQAPVNESELVAAITYSAGSTSYADSVKGRFTISRDNAKNTVYLQMNSRKPVDTAVYYCARRTRSYGYRSDYYYWGQGTQVTVSS | low polyreactivity
9 | QVQLEESGGGLVQAGGSLRLSCAASGRTFRTYTMGWYRQAPGTERELVAANSKRGSSTYYADSVKGRFTISRDNAKNTVYLQMNSLKPEDTAVYYCAARSWLSNSPYGYWGQGTQVTVSS | high polyreactivity
10 | QVQLEESGGGLVQAGGSLRLSCAASGRTFSYNAMGWYRQPPGKEREFVAAITWRGSSTYYADSVKWRFTISRDYEKNTVYLQMNSLIPDDTAVYECNARATNVIWGRYDYWGQGTQVTVSS | high polyreactivity
11 | QVQLEESGGGLVQAGGSLRLSCAASGRTFTLNAMGWYRQAPGKEREFVAAISNSGVRTYYADSVKGRFTISRDNAKNTVYLQMNSLKPEDTAVYYCARTYQVGDSIDDYWGQGTQVTVSS | low polyreactivity
12 | QVQLEESGGGLVQAGGSLRLSCAASGRTFVYNTKGWYRQAPGKERELVAAITSSGGRTSYADSVKGRFTISRDNAKNTVYLQMNSLKPEDTAVYYCAKDRYTSSTQYRRYDYWGQGTQVTVSS | high polyreactivity
13 | QVQLEESGGGLVQAGGSLRLSCAASGRTFWVYAMGWYRQAPGKERELVAAISRSGVSTYYADSVKGRFTISRDNAKNTVYLQMNSLKPEDTAVYYWAAEARVQFSYDYWGQGTQVTVSS | low polyreactivity
14 | QVQLEESGGGLVQAGGSLRLSCAASGRTFYHYAMGWYRQAPGKERELVAGITDGTITTDADSVKGRFTISRDNAKNTVYLQMNSLKPEDTAVYYCNVGYSDWWRSWAMDYWGQGTQVTVSS | high polyreactivity
15 | QVQLEESGGGLVQAGGSLRLSCAASGSIFDTYAMGWYRQAPGNERELVAAISSGGRTYYADSVKGRFTISRDNAKNTVYLQMNSLKPEDTAVYYCNARYHARYGGDYWGQGTQVTVSS | high polyreactivity
16 | QVQLEESGGGLVQAGGSLRLSCAASGSIFDVYAIGWYRQAPGKERELVAGINSAGSTYYADSVKGRFTISRDNAKNTVYLQMNSLKPEDSAVYYCAAREYILTPGYQWYTYRGYDYWGQGTQVTVSS | low polyreactivity
17 | QVQLEESGGGLVQAGGSLRLSCAASGSIFGAYTMGWYRQAPGKERELVAAISIGGSKNYADSVKGRFTISRDNAKNTVYLQMNSLKPEDTAVYYCNAEPDLEDWWWAIGLYDYWGQGTQVTVSS | high polyreactivity
18 | QVQLEESGGGLVQAGGSLRLSCAASGSIFLGYAMGWYRQAPGKERELVAAITTVGSTNYADSVKGRFTISRDNAKNTVYLQMNSVKPEDTAVYYCAAGWVGWGEKYTLDYWGQGTQVTVSS | high polyreactivity
19 | QVQLEESGGGLVQAGGSLRLSCAASGSIFQQYAMGWYRQAPGKERELVAAISYSGGTTYYADSVKGRFTISRDNAKNTVYLQMNSLKPEDTAVDYCAAYYPSGSYDYYWGQGTQVTVSS | low polyreactivity
20 | QVQLEESGGGLVQAGGSLRLSCAASGSIFRGYAMGWYRQAPGKERELVAAITWGGGSTYADSVKGRFTISRDNAKNTVYLQMNSLKPEDTAVYYCAARYVSRYYVYRGFEYWGQGTQVTVSS | high polyreactivity
21 | QVQLEESGGGLVQAGGSLRLSCAASGSIFRPNAMGWYRQAPGKERELVASINSGSGSTYYADSVKGRFTISRDNAKNTVYLQMNSLKPEDTAVYYCNAAGAYPYYSEDYYWGQGTQVTVSS | low polyreactivity
22 | QVQLEESGGGLVQAGGSLRLSCAASGSIFYDYAMGWYRQAPGKERELVAAISKSDGSTYYADSVKGRFTISRDNAKNTVYLQMNSLKPEDTAVYYCNADLIYSYPPEYDYWGQGTQVTVSS | high polyreactivity

Row | Sequence | polyreactivity (PSR sort gate)
23 | QVQLEESGGGLVQAGGSLRLSCAASGSIIRYNAMGWYRQAPGKERELVAAISASGGRTHYADSVKGRFTISRDNAKNTVYLQMNSLKPEYTAVYYCAASTYRVTSLYGYWGQGTQVTVSS | high polyreactivity
24 | QVQLEESGGGLVQAGGSLRLSCAASGSTFDNNGMGWYRQATGKERELVASITFNVGSTYYADSVKGRFTMSRDNAKNTVYLQMNSLKPEDTAVYYCGADDLNLSQALGYDFWGQGTQVTVSS | low polyreactivity
25 | QVQLEESGGGLVQAGGSLRLSCAASGSTFDRNTMGWYRQAPGKERELVAAITWSSGSTYYADSVKGRFTISRDNAKNTVYLQMNSLKPEDTAVYYCAADPIRYRSRHKYGYWGQGTQVTVSS | low polyreactivity
26 | QVQLEESGGGLVQAGGSLRLSCAASGSTFPGNALGWYRQAPGKERELVAAITSSGGSTDYADSVKGRFTISRDNAKNTVYLQMNSLKPEDTAVYYCAADGEDSLWTGYDYDYWGQGTQVTVSS | low polyreactivity
27 | QVQLEESGGGLVQAGGSLRLSCAASGSTFPGNGMGCYRPEPGKERELVAYISGGGDSTYYADSVKGRFTISRDNAKNTVYLQMNSLKPEETAVYYCAADYRQEPGYTGYYYWGHGTQVTVSS | low polyreactivity
28 | QVQLEESGGGLVQAGGSLRLSCAASGSTFPPYEMGWYRQAPGKERELVAAISGSGGSTNYADSVKGRFTISRDHAKNTVYLQMNSLKPEDNAVYRDYWGQGTQVTVSS | low polyreactivity
29 | QVQLEESGGGLVQAGGSLRLSCAASGSTFRANAMGWYRQAPGKERELVAAISSGDSTNYADSVKGRFTISRDNAKNTVYLQMNSLKPEDTAVYYCAAVYTYYWWGSYGFWGQGTQVTVSS | low polyreactivity
30 | QVQLEESGGGLVQAGGSLRLSCAASGSTFRYYAMGWYRQAHGKERELVAGISSSGGSTYYADSVKGRFTISRDNAKNTVYLQMNSLKPEDTAVYYCNAARGSSRSWAVFADYDYWGQGTQVTVSS | high polyreactivity
31 | QVQLEESGGGLVQAGGSLRLSCAASGSTFTGYAMGWYRQAPGKERELVAAISISGGRTFYADSVKVRFTISRDNAKNTVYLQMNSLKPEDTAVYYCAAYLRGSKYSFDYWGQGTQVTVSS | high polyreactivity
32 | QVQLEESGGGLVQAGGSLRLSCAASGSTFTLNAMGWYRQAPGKERELVADISWSSGRTYYADSVKGRFTISRDNAKNTVYLQMNSLKPEDTAVYYCATDDFWNVKFYAYYPEFDYWGQGTQVTVSS | low polyreactivity
33 | QVQLEESGGGLVQAGGSLRLSCAASGSTFYAYAMGWYRQAPGKERELVAAIDSGGSTYYADSVKGRFTSSRDNAKNTVYLQMNSLKPEDTAVYYCAVRHRYTRAFWGRDYWGQGTQVTVSS | low polyreactivity
34 | QVQLEESGGGLVQAGGSLRLSCAASGSTFYLYDMGWYRQAPGKERELVATITSATSTTYADSVKGRFTISRDNATNTVYLQMNSLNPEHTAVYYCNATDVGIITVGYGHGGYYWGQGTQVTVSS | low polyreactivity
35 | QVQLEESGGGLVQAGGSLRLSCAASGSTLEYNVMGWYRQAPGKERELVAAFSRSGGITYYADSVKGRFTISRDNAKNTVYLQMNRLKPEDTAVYYCNRLYTRVREYESWGQGTQVTVSS | high polyreactivity
36 | QVQLEESGGGLVQAGGSLRLSCAASGSTLGYNVMGWYRQAPGKERELVAAISGDGSTNYADSVKGRFTISRDNAKNTVYLQMNSLKPEDTAVYYCAADTYGGSRDYWGQGTQVTVSS | low polyreactivity
37 | QVQLEESGGGLVQAGGSLRLSCAASGYTFGFYTMGWYRQAPGQERALVAGISWSGGSTYYADSVKGPFTISRDNAKNTVYLQMNSLKQEDTAVFYCAAVSTRVLVNYDSWGQGTQVTVSS | high polyreactivity
38 | QVQLEESGGGLVQAGGSLRLSCAASGYTFRPYAIGWYRQAAGKERVLVAAISRSGGRTYYADSVKGRFTISRDNAKNTVYLQMNSLIPEDTAVYYCAADRFSLSGFDSWGQGTQGTVSS | low polyreactivity
39 | QVQLEESGGGLVQAGGSLRLSCAASGYTFYYYAMGWYRQAPGKERELVAAISRSGGSTYYADSVKGRFTISRDNAKNTVSLQMNSLKQEDTAVYYCAARRLVGAERPGYDYWGQGTQVTVSS | high polyreactivity
40 | QVQLEESGGGLVQAGGSLRLSCAATGLIFRTYAMGWYRQAPGKERELVAAISYSGGSTFYADSVNGRFTISRDNAKNTVYLQMNRLKPEDTAVYYCAADSRAKRYYWGQGTQVTVSS | high polyreactivity
41 | QVQLEESGGGLVQAGGSLRLSCAAYGIIFRTYDMGWYRQAPGKEREFVAAINSDCSTYYADSVKGRFTFSRDNAKNSVYLQMISVKTEDTAVYYCASDHYYAGAWYYFWGQGTQVTVSS | high polyreactivity
42 | QVQLEESGGGLVQAGGSLRLSCAGSGFTFGVYAMGWYRQAPGKERELVAVIRGSGGSTYYADSVKGRFTISRDKAKNTVYLQMNSLKPEDTAGYYCAARRYQYVWSLYNYWGQGTQVTVSS | high polyreactivity
43 | QVQLEESGGGLVQAGGSLRLSCPASGIIFGSYAMGWSRQAPGKERELVAAITSDGITNYADSVKGRFTISRDNGKNTVYLPMNSLKPEDTAVYYCAAPGPLGGSDYWGQGTQVTVSS | low polyreactivity

From the nanobody polyreactivity screen of Harvey et al. (2022)
